Each sequence was assayed on Escherichia coli TOP10 (assay: shrunken log2 fold change of peptide-encoding DNA abundance (4.5 h post-induction vs induction); higher = less antimicrobial activity (less host growth inhibition)). Conditions: time post-induction: 4.5 h; library: site-saturation at positions 5, 18, 19, 20.
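Note: peptides expressed intracellularly from a pBAD plasmid library in pooled LB shake-flask culture, induced with 0.3% L-arabinose, DNA abundance read by NGS, three biological replicates, DESeq2 with apeglm shrinkage.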

| Sequence | shrunken log2 fold change |
| --- | --- |
| RRIRDRPPRLPRPRPRPYGGPRP | -0.122 |
| RRIRWRPPRLPRPRPRPNETPRP | 0.0101 |
| RRIRNRPPRLPRPRPRPCMKPRP | -0.507 |
| RRIRVRPPRLPRPRPRPSITPRP | -0.504 |
| RRIRVRPPRLPRPRPRPRHCPRP | -0.383 |
| RRIRGRPPRLPRPRPRPWWSPRP | 0.00664 |
| RRIRGRPPRLPRPRPRPDLHPRP | 0.655 |
| RRIRCRPPRLPRPRPRPTCRPRP | 0.211 |
| RRIRQRPPRLPRPRPRPRIEPRP | 0.111 |
| RRIRARPPRLPRPRPRPYPQPRP | -0.166 |
| RRIRIRPPRLPRPRPRPCHEPRP | -0.0297 |
| RRIRVRPPRLPRPRPRPRENPRP | 0.473 |
| RRIRWRPPRLPRPRPRPYCVPRP | -0.521 |
| RRIRYRPPRLPRPRPRPMKNPRP | -0.191 |
| RRIRLRPPRLPRPRPRPIRMPRP | -0.0243 |
| RRIRPRPPRLPRPRPRPQEDPRP | -0.0602 |
| RRIRRRPPRLPRPRPRPIIFPRP | -0.0332 |
| RRIRPRPPRLPRPRPRPWGFPRP | -0.129 |
| RRIRVRPPRLPRPRPRPPSSPRP | 0.275 |
| RRIRFRPPRLPRPRPRPVPEPRP | 0.098 |
| RRIRWRPPRLPRPRPRPVPPPRP | 0.372 |
| RRIRWRPPRLPRPRPRPMRAPRP | 1.2 |
| RRIRFRPPRLPRPRPRPNMRPRP | 0.386 |

| Sequence | shrunken log2 fold change |
| --- | --- |
| RRIRCRPPRLPRPRPRPCMWPRP | -0.124 |
| RRIRARPPRLPRPRPRPENWPRP | 0.569 |
| RRIRIRPPRLPRPRPRPCYNPRP | -0.329 |
| RRIRERPPRLPRPRPRPPTHPRP | 0.0517 |
| RRIRKRPPRLPRPRPRPCEGPRP | 0.0796 |
| RRIRARPPRLPRPRPRPNLKPRP | 0.164 |
| RRIRMRPPRLPRPRPRPYSNPRP | -0.834 |
| RRIRPRPPRLPRPRPRPPWQPRP | 0.443 |
| RRIRTRPPRLPRPRPRPSFAPRP | -0.126 |
| RRIRMRPPRLPRPRPRPMTSPRP | 0.157 |
| RRIRERPPRLPRPRPRPFPAPRP | -0.0357 |
| RRIRRRPPRLPRPRPRPLEAPRP | 0.404 |
| RRIRCRPPRLPRPRPRPVHCPRP | 0.0148 |
| RRIRSRPPRLPRPRPRPEDHPRP | 0.146 |
| RRIRDRPPRLPRPRPRPPHKPRP | 0.0115 |
| RRIRRRPPRLPRPRPRPYEFPRP | -0.187 |
| RRIRRRPPRLPRPRPRPTPRPRP | 2.37 |
| RRIRMRPPRLPRPRPRPYKAPRP | 0.00361 |
| RRIRKRPPRLPRPRPRPMDPPRP | 0.115 |
| RRIRARPPRLPRPRPRPCFLPRP | -0.24 |
| RRIRVRPPRLPRPRPRPMGIPRP | 0.134 |
| RRIRLRPPRLPRPRPRPEECPRP | 0.00698 |
| RRIRERPPRLPRPRPRPVQHPRP | -0.402 |

| Sequence | shrunken log2 fold change |
| --- | --- |
| RRIRNRPPRLPRPRPRPCHYPRP | 0.00673 |
| RRIRRRPPRLPRPRPRPNDIPRP | -0.349 |
| RRIRVRPPRLPRPRPRPEQKPRP | -0.0196 |
| RRIRNRPPRLPRPRPRPQITPRP | -1.07 |
| RRIRPRPPRLPRPRPRPFHFPRP | -0.339 |
| RRIRQRPPRLPRPRPRPNFSPRP | -0.23 |
| RRIRIRPPRLPRPRPRPAKPPRP | 0.297 |
| RRIRFRPPRLPRPRPRPMPMPRP | -0.00868 |
| RRIRLRPPRLPRPRPRPRQEPRP | 0.0259 |
| RRIRHRPPRLPRPRPRPHVKPRP | -0.00471 |
| RRIRSRPPRLPRPRPRPVQYPRP | -0.00908 |
| RRIRMRPPRLPRPRPRPLWYPRP | 0.205 |
| RRIRSRPPRLPRPRPRPTICPRP | -0.126 |
| RRIRFRPPRLPRPRPRPCEPPRP | 0.0391 |
| RRIRVRPPRLPRPRPRPIDTPRP | -0.48 |
| RRIRKRPPRLPRPRPRPRLEPRP | 0.782 |
| RRIRTRPPRLPRPRPRPITVPRP | -0.154 |
| RRIRDRPPRLPRPRPRPDEAPRP | 0.12 |
| RRIRQRPPRLPRPRPRPFPNPRP | -0.0586 |
| RRIRHRPPRLPRPRPRPQVHPRP | -0.213 |
| RRIRRRPPRLPRPRPRPCAYPRP | 0.0425 |
| RRIRGRPPRLPRPRPRPWHIPRP | -0.111 |
| RRIRFRPPRLPRPRPRPEKPPRP | -0.0143 |

| Sequence | shrunken log2 fold change |
| --- | --- |
| RRIRNRPPRLPRPRPRPRKSPRP | 0.132 |
| RRIRVRPPRLPRPRPRPYKTPRP | 0.0577 |
| RRIRERPPRLPRPRPRPTIRPRP | -0.622 |
| RRIRARPPRLPRPRPRPITAPRP | 0.232 |
| RRIRVRPPRLPRPRPRPKMAPRP | -0.222 |
| RRIRFRPPRLPRPRPRPIHVPRP | -0.335 |
| RRIRVRPPRLPRPRPRPNDDPRP | -0.299 |
| RRIRNRPPRLPRPRPRPLGEPRP | -0.0638 |
| RRIRSRPPRLPRPRPRPHIQPRP | -0.699 |
| RRIRWRPPRLPRPRPRPMETPRP | 1.73 |
| RRIRWRPPRLPRPRPRPYPSPRP | -0.0856 |
| RRIRERPPRLPRPRPRPYHRPRP | 0.00148 |
| RRIRLRPPRLPRPRPRPIVWPRP | -0.027 |
| RRIRTRPPRLPRPRPRPIGMPRP | 0.0258 |
| RRIRIRPPRLPRPRPRPQICPRP | -0.0396 |
| RRIRARPPRLPRPRPRPNWHPRP | 0.163 |
| RRIRPRPPRLPRPRPRPKWFPRP | 0.0432 |
| RRIRRRPPRLPRPRPRPLGAPRP | 0.468 |
| RRIRYRPPRLPRPRPRPYLTPRP | -0.305 |
| RRIRHRPPRLPRPRPRPDNDPRP | 0.00849 |
| RRIRSRPPRLPRPRPRPFAFPRP | -0.0807 |
| RRIRARPPRLPRPRPRPEMQPRP | 1.66 |
